From the supplement of paper PMC6757056
± gives the standard deviation of the averaged measurements.

B1: library; a variant is named by its letters at N, in order (parent)
chain: GCUGUCACCGAGAAACUGUGAAGUAUAUCUUAAACCUGGGCACUUAAAAGAUAUAUGGAGUUAGUAGUGCAACCUGCUCGGUCUGAUGAGUCCNNNNNNGGACGAAACAGC

Legend:
[1] = variants of: B1; test: normalized RNA/DNA level without ligand (relative to sTRSVctl = 100) (log10 (% of sTRSVctl)); HEK293T; ligand: cyclic di-GMP (c-di-GMP-II aptamer); higher = less ribozyme self-cleavage, higher mRNA level; settings: reporter: mCherry (pCS4076), ligand present: no
Method in brief: (§1)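 HEK293T cells were transfected with library plasmids carrying ribozyme switches linked to an mCherry reporter, or an eGFP reporter in some ligand experiments, at 4 µg per well of a 6-well plate, with any ligand added 1 h beforehand. After 72 h, total RNA was extracted with EDTA, reverse-transcribed, amplified, barcoded and sequenced. RNA level was defined as RNA reads over DNA reads, normalized to a spiked-in non-cleaving sequence or to the top-ranked sequences. That value was multiplied by 100 and converted to log10, the top set was 25 sequences, and only sequences with ≥100 DNA reads were retained.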

[2] = variants of: B1; test: normalized RNA/DNA level with ligand (relative to sTRSVctl = 100) (log10 (% of sTRSVctl)); HEK293T; ligand: cyclic di-GMP (c-di-GMP-II aptamer); ligand concentration (+) RNA-Seq: 1 mM; higher = less ribozyme self-cleavage, higher mRNA level; settings: reporter: mCherry (pCS4076), ligand present: yes
Method in brief: as §1

| Variant | normalized RNA/DNA level without ligand (log10) [1] | normalized RNA/DNA level with ligand (log10) [2] |
| --- | --- | --- |
| GUCGAA | 1.49 ± 0.068 | 1.65 ± 0.11 |
| GUCGAG | 1.617 ± 0.0063 | 1.76 ± 0.12 |
| GUCGAC | 1.5985 ± 0.0011 | 1.76 ± 0.16 |
| GUCGAU | 1.59 ± 0.11 | 1.71 ± 0.096 |
| CUCGCG | 1.857 ± 0.014 | 1.91 ± 0.039 |
| CUCGCA | 1.66 ± 0.047 | 1.81 ± 0.14 |
| CUCGCC | 1.784 ± 0.0038 | 1.86 ± 0.095 |
| AUGAGC | 1.62 ± 0.066 | 1.8 ± 0.082 |
| AUGAGG | 1.55 ± 0.044 | 1.73 ± 0.085 |
| UUGAAU | 1.661 ± 0.0028 | 1.83 ± 0.095 |
| UUGAAC | 1.691 ± 0.0046 | 1.82 ± 0.11 |
| AUGCCC | 1.79 ± 0.051 | 1.82 ± 0.14 |
| UUCUUG | 1.73 ± 0.045 | 1.86 ± 0.11 |
| UUCUUA | 1.76 ± 0.095 | 1.87 ± 0.15 |
| UUCUUU | 1.74 ± 0.024 | 1.9 ± 0.081 |
| UUCUUC | 1.78 ± 0.05 | 1.89 ± 0.16 |
| UUCCCU | 1.766 ± 0.012 | 1.89 ± 0.048 |
| UUCCCC | 1.84 ± 0.053 | 1.94 ± 0.14 |
| UUCCCG | 1.85 ± 0.1 | 1.94 ± 0.13 |
| UUCCCA | 1.79 ± 0.07 | 1.92 ± 0.12 |
| CUCAUG | 1.68 ± 0.031 | 1.82 ± 0.14 |
| CUCAUU | 1.79 ± 0.079 | 1.9 ± 0.12 |
| CUCCUU | 1.61 ± 0.071 | 1.79 ± 0.051 |

| Variant | normalized RNA/DNA level without ligand (log10) [1] | normalized RNA/DNA level with ligand (log10) [2] |
| --- | --- | --- |
| CUCCUC | 1.76 ± 0.026 | 1.87 ± 0.11 |
| CUCCUG | 1.78 ± 0.065 | 1.85 ± 0.13 |
| GUCCAG | 1.76 ± 0.07 | 1.83 ± 0.1 |
| GUCCAC | 1.6752 ± 0.00073 | 1.82 ± 0.054 |
| GUCCAU | 1.66 ± 0.054 | 1.83 ± 0.14 |
| UUCAUU | 1.77 ± 0.074 | 1.89 ± 0.094 |
| UUCAUG | 1.698 ± 0.013 | 1.83 ± 0.087 |
| UUCAUA | 1.69 ± 0.019 | 1.82 ± 0.12 |
| GUGAAC | 1.5 ± 0.08 | 1.69 ± 0.13 |
| GUCUCU | 1.714 ± 0.011 | 1.86 ± 0.095 |
| GUCUCA | 1.7 ± 0.035 | 1.83 ± 0.14 |
| GUCUCG | 1.867 ± 0.0092 | 1.88 ± 0.073 |
| GUCUCC | 1.82 ± 0.041 | 1.89 ± 0.15 |
| UUGAUC | 1.73 ± 0.038 | 1.85 ± 0.11 |
| UUGAUA | 1.49 ± 0.02 | 1.69 ± 0.17 |
| UUGAUU | 1.698 ± 0.016 | 1.81 ± 0.083 |
| UUCGUC | 1.76 ± 0.037 | 1.88 ± 0.058 |
| UUCGUA | 1.64 ± 0.021 | 1.82 ± 0.11 |
| UUCGUU | 1.736 ± 0.0061 | 1.87 ± 0.14 |
| UUGCCA | 1.8 ± 0.08 | 1.82 ± 0.13 |
| AUCCGA | 1.56 ± 0.017 | 1.73 ± 0.15 |
| AUCCGG | 1.85 ± 0.024 | 1.93 ± 0.023 |
| AUCCGC | 1.76 ± 0.032 | 1.88 ± 0.13 |

| Variant | normalized RNA/DNA level without ligand (log10) [1] | normalized RNA/DNA level with ligand (log10) [2] |
| --- | --- | --- |
| AUCCGU | 1.74 ± 0.041 | 1.89 ± 0.12 |
| UUGACU | 1.75 ± 0.025 | 1.84 ± 0.11 |
| UUGACG | 1.77 ± 0.025 | 1.88 ± 0.1 |
| CUCGUU | 1.762 ± 0.005 | 1.86 ± 0.1 |
| CUCGUG | 1.63 ± 0.047 | 1.82 ± 0.088 |
| CUCGUA | 1.6 ± 0.025 | 1.76 ± 0.086 |
| CUCGUC | 1.81 ± 0.032 | 1.93 ± 0.098 |
| GUGCAA | 1.64 ± 0.046 | 1.77 ± 0.084 |
| GUGCAC | 1.729 ± 0.0059 | 1.83 ± 0.17 |
| GUGCAG | 1.86 ± 0.06 | 1.89 ± 0.13 |
| AUGAUA | 1.53 ± 0.069 | 1.71 ± 0.14 |
| AUGAUC | 1.65 ± 0.049 | 1.82 ± 0.087 |
| UUCCGA | 1.79 ± 0.045 | 1.92 ± 0.12 |
| UUCCGC | 1.771 ± 0.0064 | 1.89 ± 0.084 |
| UUCCGG | 1.84 ± 0.045 | 1.93 ± 0.043 |
| CUCCGG | 1.79 ± 0.072 | 1.87 ± 0.17 |
| CUCCGC | 1.78 ± 0.019 | 1.91 ± 0.073 |
| CUCCGA | 1.69 ± 0.016 | 1.82 ± 0.15 |
| GUGACC | 1.67 ± 0.065 | 1.824 ± 0.015 |
| GUGACA | 1.665 ± 0.0036 | 1.79 ± 0.069 |
| GUGACG | 1.66 ± 0.021 | 1.77 ± 0.11 |
| GUGACU | 1.671 ± 0.002 | 1.8 ± 0.089 |
| AUCCCA | 1.76 ± 0.024 | 1.86 ± 0.091 |

| Variant | normalized RNA/DNA level without ligand (log10) [1] | normalized RNA/DNA level with ligand (log10) [2] |
| --- | --- | --- |
| AUCCCC | 1.8 ± 0.048 | 1.92 ± 0.099 |
| AUCCCU | 1.7543 ± 0.001 | 1.91 ± 0.07 |
| CUCUCC | 1.81 ± 0.029 | 1.91 ± 0.11 |
| CUCUCA | 1.57 ± 0.056 | 1.78 ± 0.098 |
| CUCUCG | 1.89 ± 0.031 | 1.96 ± 0.1 |
| CUGAAG | 1.59 ± 0.018 | 1.73 ± 0.03 |
| CUGAAC | 1.603 ± 0.0055 | 1.77 ± 0.084 |
| AUCCAG | 1.719 ± 0.012 | 1.85 ± 0.13 |
| AUCCAA | 1.56 ± 0.053 | 1.73 ± 0.12 |
| AUCCAU | 1.65 ± 0.048 | 1.81 ± 0.088 |
| AUCCAC | 1.718 ± 0.016 | 1.85 ± 0.088 |
| UUGCAA | 1.69 ± 0.075 | 1.81 ± 0.037 |
| UUGCAC | 1.75 ± 0.024 | 1.85 ± 0.11 |
| UUGCAG | 1.8468 ± 0.00037 | 1.9 ± 0.042 |
| UUGCAU | 1.669 ± 0.0095 | 1.81 ± 0.081 |
| UUCGCC | 1.7 ± 0.051 | 1.83 ± 0.067 |
| UUCGCU | 1.77 ± 0.023 | 1.88 ± 0.087 |
| UUCGCG | 1.837 ± 0.0073 | 1.93 ± 0.089 |
| UUCGCA | 1.787 ± 0.014 | 1.9 ± 0.049 |
| GUCUUC | 1.7 ± 0.015 | 1.87 ± 0.097 |
| GUCUUA | 1.677 ± 0.0086 | 1.83 ± 0.15 |
| GUCUUU | 1.7 ± 0.033 | 1.83 ± 0.092 |
| AUCGUA | 1.511 ± 0.0037 | 1.72 ± 0.16 |

| Variant | normalized RNA/DNA level without ligand (log10) [1] | normalized RNA/DNA level with ligand (log10) [2] |
| --- | --- | --- |
| AUCGUC | 1.85 ± 0.056 | 1.92 ± 0.092 |
| AUCGUU | 1.6 ± 0.035 | 1.78 ± 0.048 |
| AUCGUG | 1.59 ± 0.084 | 1.74 ± 0.027 |
| AUGAAU | 1.53 ± 0.055 | 1.72 ± 0.024 |
| AUGAAG | 1.52 ± 0.13 | 1.67 ± 0.064 |
| AUGACG | 1.59 ± 0.089 | 1.76 ± 0.086 |
| AUGACA | 1.581 ± 0.013 | 1.72 ± 0.14 |
| AUCAUC | 1.8459 ± 0.00049 | 1.935 ± 0.0035 |
| AUCAUA | 1.615 ± 0.0089 | 1.74 ± 0.075 |
| AUCAUG | 1.62 ± 0.019 | 1.78 ± 0.11 |
| AUCAUU | 1.695 ± 0.0081 | 1.79 ± 0.12 |
| CUGAUC | 1.6663 ± 0.001 | 1.76 ± 0.13 |
| CUCCCA | 1.718 ± 0.0069 | 1.87 ± 0.052 |
| CUCCCU | 1.661 ± 0.0018 | 1.76 ± 0.05 |
| CUCCCG | 1.79 ± 0.088 | 1.91 ± 0.14 |
| CUCCCC | 1.82 ± 0.032 | 1.9 ± 0.089 |
| GUCUGG | 1.68 ± 0.036 | 1.86 ± 0.049 |
| GUCUGC | 1.732 ± 0.012 | 1.87 ± 0.12 |
| GUCUGA | 1.54 ± 0.018 | 1.75 ± 0.11 |
| AUCGGG | 1.67 ± 0.069 | 1.81 ± 0.12 |
| AUCGGU | 1.647 ± 0.0035 | 1.78 ± 0.066 |
| AUCGGC | 1.78 ± 0.033 | 1.87 ± 0.16 |
| GUCAUU | 1.66 ± 0.061 | 1.81 ± 0.12 |
